In patent publication US20240207433A1:

Molecular target: human alpha-enolase protein (ENO-1) (human) (UniProt P06733)
Experiment: cell-based or functional assay

UniProt P06733, sequence (P06733 2-434): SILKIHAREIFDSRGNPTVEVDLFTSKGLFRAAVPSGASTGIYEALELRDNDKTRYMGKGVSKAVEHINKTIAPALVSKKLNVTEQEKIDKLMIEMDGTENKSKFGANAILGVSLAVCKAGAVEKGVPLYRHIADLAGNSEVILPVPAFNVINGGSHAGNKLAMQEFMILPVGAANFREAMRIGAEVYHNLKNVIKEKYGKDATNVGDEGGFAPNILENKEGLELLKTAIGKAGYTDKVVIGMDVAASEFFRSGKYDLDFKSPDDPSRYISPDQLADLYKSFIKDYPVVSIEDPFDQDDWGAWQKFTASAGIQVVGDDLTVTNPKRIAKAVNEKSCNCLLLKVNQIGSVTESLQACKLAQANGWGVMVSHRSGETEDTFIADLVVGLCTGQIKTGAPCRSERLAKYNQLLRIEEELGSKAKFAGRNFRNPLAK

HuL001-SMCC-DM1 was tested, and the IC50 of cytotoxicity (CCK-8), A549, IL-6 was 11.2 nM, the IC50 of cytotoxicity (CCK-8), A549, MCP-1 was 12.1 nM and the IC50 of cytotoxicity (CCK-8), A549, TGF-β was 8.2 nM. The IC50 of cytotoxicity (CCK-8), A549, untreated was 56 nM, the IC50 of cytotoxicity (CCK-8), DB, IL-6 was 5.8 nM and the IC50 of cytotoxicity (CCK-8), DB, MCP-1 was 4.1 nM. For the same substance, the IC50 of cytotoxicity (CCK-8), DB, TGF-β was 5.1 nM, the IC50 of cytotoxicity (CCK-8), DB, untreated was 5.5 nM and the IC50 of cytotoxicity (CCK-8), GA-10, IL-6 was 26.6 nM. The IC50 of cytotoxicity (CCK-8), GA-10, MCP-1 was 25.6 nM, the IC50 of cytotoxicity (CCK-8), GA-10, TGF-β was 22.8 nM and the IC50 of cytotoxicity (CCK-8), GA-10, untreated was 37.8 nM. The IC50 of cytotoxicity (CCK-8), HT, IL-6 was 6.6 nM, the IC50 of cytotoxicity (CCK-8), HT, MCP-1 was 7.6 nM and the IC50 of cytotoxicity (CCK-8), HT, TGF-β was 6.1 nM. It also gave an IC50 of cytotoxicity (CCK-8), HT, untreated of 7.3 nM, an IC50 of cytotoxicity (CCK-8), MCF-7, IL-6 of 38.6 nM and an IC50 of cytotoxicity (CCK-8), MCF-7, MCP-1 of 36.2 nM. For the same substance, the IC50 of cytotoxicity (CCK-8), MCF-7, TGF-β was 53.5 nM, the IC50 of cytotoxicity (CCK-8), MCF-7, untreated was 74.9 nM and the IC50 of cytotoxicity (CCK-8), MDA-MB-175, IL-6 was 45.1 nM. The IC50 of cytotoxicity (CCK-8), MDA-MB-175, MCP-1 was 40.5 nM, the IC50 of cytotoxicity (CCK-8), MDA-MB-175, TGF-β was 38.3 nM and the IC50 of cytotoxicity (CCK-8), MDA-MB-175, untreated was 76.4 nM. It also gave an IC50 of cytotoxicity (CCK-8), MDA-MB-231, IL-6 of 34.6 nM, an IC50 of cytotoxicity (CCK-8), MDA-MB-231, MCP-1 of 22.4 nM and an IC50 of cytotoxicity (CCK-8), MDA-MB-231, TGF-β of 24.2 nM. It also gave an IC50 of cytotoxicity (CCK-8), MDA-MB-231, untreated of 69 nM, an IC50 of cytotoxicity (CCK-8), MDA-MB-453, IL-6 of 22.8 nM and an IC50 of cytotoxicity (CCK-8), MDA-MB-453, MCP-1 of 24.7 nM. The IC50 of cytotoxicity (CCK-8), MDA-MB-453, TGF-β was 16.6 nM, the IC50 of cytotoxicity (CCK-8), MDA-MB-453, untreated was 39.8 nM and the IC50 of cytotoxicity (CCK-8), PANC-1, IL-6 was 134 nM. It also gave an IC50 of cytotoxicity (CCK-8), PANC-1, MCP-1 of 110 nM, an IC50 of cytotoxicity (CCK-8), PANC-1, TGF-β of 116 nM and an IC50 of cytotoxicity (CCK-8), PANC-1, untreated of 174 nM. It also gave an IC50 of cytotoxicity (CCK-8), Raji, IL-6 of 17.1 nM, an IC50 of cytotoxicity (CCK-8), Raji, MCP-1 of 21.7 nM and an IC50 of cytotoxicity (CCK-8), Raji, TGF-β of 18.6 nM. For the same substance, the IC50 of cytotoxicity (CCK-8), Raji, untreated was 32.2 nM, the IC50 of cytotoxicity (CCK-8), SU-DHL-4, IL-6 was 8.3 nM and the IC50 of cytotoxicity (CCK-8), SU-DHL-4, MCP-1 was 7.6 nM. For the same substance, the IC50 of cytotoxicity (CCK-8), SU-DHL-4, TGF-β was 7.4 nM, the IC50 of cytotoxicity (CCK-8), SU-DHL-4, untreated was 7.65 nM and the IC50 of cytotoxicity (CCK-8), Toledo, IL-6 was 11.4 nM. For the same substance, the IC50 of cytotoxicity (CCK-8), Toledo, MCP-1 was 8.1 nM, the IC50 of cytotoxicity (CCK-8), Toledo, TGF-β was 9.8 nM and the IC50 of cytotoxicity (CCK-8), Toledo, untreated was 8 nM. For the same substance, the IC50 of cytotoxicity (CCK-8), U937, IL-6 was 7.1 nM, the IC50 of cytotoxicity (CCK-8), U937, MCP-1 was 9.7 nM and the IC50 of cytotoxicity (CCK-8), U937, TGF-β was 7.5 nM. For the same substance, the IC50 of cytotoxicity (CCK-8), U937, untreated was 75 nM.
